Reference: the nanobody polyreactivity screen of Harvey et al. (2022)

Assay: yeast display, Sf9 membrane polyspecificity reagent, FACS + sequencing; frameworks hold sequencing errors
Method in brief: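 Polyreactivity labels are assigned by the sorting gate from which each nanobody was recovered. The gates were low and high (top ~1%), set on anti-HA fluorescence for expression and streptavidin fluorescence for reagent binding. Before sorting, galactose-induced (36–48 hours) yeast display cells were stained for 1 hour at 4 °C with 10% biotinylated, detergent-solubilized Sf9 membrane reagent.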

Row | Sequence | polyreactivity (PSR sort gate)
1 | QVQLVESGGGLVQAGGSLRLSCAASGSIFGYYAMGWYRQAPGKEREFVAAISWSGGRTTYADSVKGRFTISRDNAKNTVYLQMNSLKPEDTAVYYCAAAARRKFYYWGQGTQVTVSS | high polyreactivity
2 | QVQLVESGGGLVQAGGSLRLSCAASGSIFGYYAMGWYRQAPGKERELVAAISSGDSTYADSVKGRFTISRDNAKNTVYLQMNSLKPEDTAVYYCAADEYYTFSSFELRRMDYWGQGTQVTVSS | low polyreactivity
3 | QVQLVESGGGLVQAGGSLRLSCAASGSIFGYYAMGWYRQAPGKERELVAAISSGGNTNYADSVKGRFTISRDNAKNTVYLQMNSLKPEDTAVYYCATRARYKRIRYDYWGQGTQVTVSS | high polyreactivity
4 | QVQLVESGGGLVQAGGSLRLSCAASGSIFGYYAMGWYRQAPGKERELVAAISVRGGSTYYADSVKGRFTISRDNAKNTVYLQMNSLKPEDTAVYYCAARISYSLSYWGQGTQVTVSS | high polyreactivity
5 | QVQLVESGGGLVQAGGSLRLSCAASGSIFGYYAMGWYRQAPGKERELVARISYSGGTTYYADSVKGRFTISRDNAKNTVYLQMNSLKPEATAVYYCNARIPYSWRYGYWGQGTQVTVSS | high polyreactivity
6 | QVQLVESGGGLVQAGGSLRLSCAASGSIFGYYAMGWYRQAPGKERELVASISGSGGTTYFADSVKGRFTISRDNAKNTVYLQMNSLKPEDTAVYYCAARRSIYGYPFVTSRRGYWGQGTQVTVSS | high polyreactivity
7 | QVQLVESGGGLVQAGGSLRLSCAASGSIFGYYDMGWYRQAPGKERELVAAISYRGSSTYYADSVKGRFTISRDNAKNTVYLQMNSLKPEDTAVYYCASRYYYSYPPQEDDYWGQGTQVTVSS | high polyreactivity
8 | QVQLVESGGGLVQAGGSLRLSCAASGSIFGYYTMGWYRQAPGKERELVAAITSGGSTNYADSVKGRFTISRDNAKNTVYLQMNSLKPEDTAVYYCAKVSYYPWRYDYWGQGTQVTVSS | low polyreactivity
9 | QVQLVESGGGLVQAGGSLRLSCAASGSIFGYYTMGWYRQAPGKERELVAGIDFITTSTYYADSVKGRFTISRDNAKNTVYLQMNSLKPEDTAVYYCNADPFTGYDYWGQGTQVTVSS | low polyreactivity
10 | QVQLVESGGGLVQAGGSLRLSCAASGSIFGYYTMGWYRQAPGKERELVAGITSTGNTNYADSVKGRFTISRDNAKNTVYLQMNSLKPEDTAVYYCAADSESTWDYGWELEVGYDYWGQGTQVTVSS | low polyreactivity
11 | QVQLVESGGGLVQAGGSLRLSCAASGSIFGYYTMGWYRQAPGKERELVATITSGGSTYYADSVKGRFTISRDNAKNTVYLQMNSLKPEDTAVYYCNADWYWRVYWGQGTQVTVSS | high polyreactivity
12 | QVQLVESGGGLVQAGGSLRLSCAASGSIFHGYAMGWYRQAPGKERELVAAISYTGGRTYYADSVKGRFTISRDNAKNTVYLQMNSLKPEDTAVYYCADDSQLTKFYYWGQGTQVTVSS | high polyreactivity
13 | QVQLVESGGGLVQAGGSLRLSCAASGSIFHGYAMGWYRRAPGKERELVAAITYSGGRTYYADSVKGRFTISRDNAKNTVYLQMNSLKPEDTAVYYCAALTRRVKKYDYWGQGTQVTVSS | high polyreactivity
14 | QVQLVESGGGLVQAGGSLRLSCAASGSIFHHNAMGWYRQAPGKERELVAAISSRSGNTYYADSVKGRFTISRDNAKNTVYLQMNSLKPEDTAVYYCAAGKRLSYSTYDSWGQGTQVTVSS | high polyreactivity
15 | QVQLVESGGGLVQAGGSLRLSCAASGSIFHINAMGWYRQAPGKERELVADISQRGGSTYYADSVKGRVTISRDNAKNTVYLQMNSLKPEDTAVYYCAVVHVFYAVSYFSFYTYEYWGQGTQVTVSS | low polyreactivity
16 | QVQLVESGGGLVQAGGSLRLSCAASGSIFHIYMGWYRQSPGKERELVASNSYRGGTTYYADSVKGRFTISRDNAKNTVYLQMNSLKPEDTAVYDCNVDRYFYHYGRYGHMDYWGQGTQVTVSS | low polyreactivity
17 | QVQLVESGGGLVQAGGSLRLSCAASGSIFHLYLGWYRQAPRKERELVAVIKSSGDSTYYADSVKGRFTISRDNAKNTVYLQMNSMKPEDTAVYYCNARRRGPRYRYCYWGQGTQVTVSS | high polyreactivity
18 | QVQLVESGGGLVQAGGSLRLSCAASGSIFHMNAMGWYRQAPGKERELDASISSDGSTYYADSVKGRFTISRDNAKNTVYLQMNSLKPEVTAVYYCNADSQWALKQLSFDYWGQGTQVTVSS | low polyreactivity
19 | QVQLVESGGGLVQAGGSLRLSCAASGSIFHPNAMGWYRQAPGKERELVAAITKSGGSTYYADSVKGRFTISRDNAKNTVYLQMNSLKPEDTAVYYCAKVSRATVTYDYWGQGTQVTVSS | high polyreactivity
20 | QVQLVESGGGLVQAGGSLRLSCAASGSIFHRYAMGWYRQAPGKEREFVAAISGRGGSTYYADSVKGRFTISRDNAKNSVYLQMNSLKPEDTAVYYCAADSSRFYGRPRYYYWGQGTQVTVSS | high polyreactivity
21 | QVQLVESGGGLVQAGGSLRLSCAASGSIFHTYVMGWYRQAPGKERELVASITRSGGSTYYADSVKGRFTISRDNAMNTVYLQMNSLKPEDTAVYYCAATYRTANHRYYYWGQGTQVTVSS | high polyreactivity

Row | Sequence | polyreactivity (PSR sort gate)
22 | QVQLVESGGGLVQAGGSLRLSCAASGSIFHVYGMGWYRQAPGKEREFVADITSRGTRTYYADSVKGRFTISRDNAKNTVYLQMNSLKPEDTAVYYCNTLVGVDFWLVDYWGQVTQVTVSS | low polyreactivity
23 | QVQLVESGGGLVQAGGSLRLSCAASGSIFHWYAMGWYRQAPGKERELVAAISWSGGSTYYADSVKGRFTISRDNAKNTVYLQRNSLKPEDTAVYYCNKYIRYPFKRYGYWGQGTQVTVSS | high polyreactivity
24 | QVQLVESGGGLVQAGGSLRLSCAASGSIFHYNAMGWYRQAPGKERELVAAITTSGGSTYYADSVKGRFTISRDNAKNTVYLQMNSLKPEDTAVYYCAADLVWTRYFGYAPDYYIEFDYWGQGTQVTVSS | high polyreactivity
25 | QVQLVESGGGLVQAGGSLRLSCAASGSIFHYYAMGWYRQAPGKERELVAAISWSGGRTYYADSVKGRFTISRDNAKNTVYLQMNSLKPEDTAVYYCAADYDGSFNTPYLLDPYDYWGQGTQVTVSS | high polyreactivity
26 | QVQLVESGGGLVQAGGSLRLSCAASGSIFIAYGMGWYRQEPGKERELVAAITVSGGNTYYADSVKGRFTISRDNAKNTVYLQMYSLKPEDTAVYYCADVTYWQDGHRGNYWGQGTQVTVSS | low polyreactivity
27 | QVQLVESGGGLVQAGGSLRLSCAASGSIFIDNAMGWYIQAPGKEREFVAAISKSGTSTYYADSVNGRFTISRDNAMNAVDLQMNSLKPEDTAVYYCAVRRPRPYSNYYYWGQGTQVTVSS | high polyreactivity
28 | QVQLVESGGGLVQAGGSLRLSCAASGSIFIDYAMGWYRQAPGKERELVATISNSGTSTYYADSVKGRFTISRDNAKNTVYLQMNSLKPEDTAVYYCAAEAWPYGDYYWGQGTQVTVSS | low polyreactivity
29 | QVQLVESGGGLVQAGGSLRLSCAASGSIFIGNTMGWYRQAPGKERELVATIRRSGSRTYDADSVKGRFTISRDNAKNTVYLQMNSLKPEDTAVYYCAADRLRTSGYKTIYDYWGQGTQVTVSS | low polyreactivity
30 | QVQLVESGGGLVQAGGSLRLSCAASGSIFIGNTMGWYRQAPGKERELVATIRRSGSRTYYADSVKGRFTISRDNAKNTVYLQLNSLKPEDTAVYYCAADRLRSSGYKTIYDYWGQGTQVTVSS | low polyreactivity
31 | QVQLVESGGGLVQAGGSLRLSCAASGSIFIGYAMGWNRQAPGKERELVAGISSNGGTTYYADSVKGRFTISRDNAKNTVYLQMNSLKPEDTAVYYCATQYYARGYLYDYWGHGTQVTVSS | low polyreactivity
32 | QVQLVESGGGLVQAGGSLRLSCAASGSIFILNAMGWYRQAPGKERELGAAISWSGGRTNYADSVKGRFTISRDNAKNPVYLHMNSLKPEDTAVYYCAARVTPYRGFYYWGQGTQVTVSS | high polyreactivity
33 | QVQLVESGGGLVQAGGSLRLSCAASGSIFINNTMGWYRQAPGKERELVAAISITGGSTYYADSVKGRFTISRDNAKNTVYLQMNSLKPEDTAVYYCAADPLQLYDYNYWGQGTQVTVSS | low polyreactivity
34 | QVQLVESGGGLVQAGGSLRLSCAASGSIFISYAMGWYRQAPGKERELVAAINSGGSTNYADSVKGRFTISRDNAKNTVYLQMNSLKPEDTAVYYCAVDGYFFQGPYYYWGQGTQVTVSS | low polyreactivity
35 | QVQLVESGGGLVQAGGSLRLSCAASGSIFITYAMGWYRQAPGKERELVAAIRDSGDRTYYADSVKGRFTISRDNAKKTVYLQMNSLKPEDTAVYYCNARWQEPLKYDYWGQGTQVTVSS | low polyreactivity
36 | QVQLVESGGGLVQAGGSLRLSCAASGSIFIYNAMGWYRQAPGKERELVAAINWTGGSTYYADSVKGRFTISRDNAKNTVYLQMNSMKPEDTAVYYCNALRYGSTRGYDYWGQGSQVTVSS | high polyreactivity
37 | QVQLVESGGGLVQAGGSLRLSCAASGSIFIYNVMGWYRQAPGKERELVATIRGSGGSTYYADSVKGRFTISRDNAQNTVYLQMNSLKPEDTAVYYCARRDYPVQWGRAYNYWGQGTQVTVSS | high polyreactivity
38 | QVQLVESGGGLVQAGGSLRLSCAASGSIFIYYAMGWYRQAPGKERELVAAISSSGDSTNYADSVKGRFTISRDNAKNTVYLQMNSLKPEDTAVYYCAADPYYFYIWYWWPSFDYWGQGTQVTVSS | low polyreactivity
39 | QVQLVESGGGLVQAGGSLRLSCAASGSIFKGYAMGWYRQAPGKERELVAANTYSGGGTYYADSVKGRFTISRDNAKNTVYLQMKSLKQEDTAVYYCNADRYYPDDLSDGVGTYDYWGQGTQVSVSS | low polyreactivity
40 | QVQLVESGGGLVQAGGSLRLSCAASGSIFKKNAMGWYRQEPGKERELVAAITRRGASTYYADSVKGRFTISRDNAKNNVYLQMNSLKREDTAVYYCAAPGKIGASFDNYYYWGQGTQVTVSS | high polyreactivity
41 | QVQLVESGGGLVQAGGSLRLSCAASGSIFKKYAMGWYRQAPGKERELVAAIRSSGGSTYYADSVKGRFTISRDNAKNTVYLQMNSLKPEDTAVYYCAAYVPQGYKLYYWGQGTQVSVSS | high polyreactivity
